Data set [1] has as its target p190RhoGAP pY1105 peptide (Homo sapiens) (UniProt Q9NRY4). The data set can be described thus: ITC. The note with it: cited from earlier work.
Data set [2] has as its target p190RhoGAP pY1087 peptide (Homo sapiens) (UniProt Q9NRY4). The data set can be described thus: ITC. The note with it: cited from earlier work.
The target in data set [3] is T1, p120RasGAP SH2-SH3-SH2 region (residues 174–444) (human, UniProt P20936 174-444, C236S | C261S | C372S | C402S).
T1 sequence (looked up): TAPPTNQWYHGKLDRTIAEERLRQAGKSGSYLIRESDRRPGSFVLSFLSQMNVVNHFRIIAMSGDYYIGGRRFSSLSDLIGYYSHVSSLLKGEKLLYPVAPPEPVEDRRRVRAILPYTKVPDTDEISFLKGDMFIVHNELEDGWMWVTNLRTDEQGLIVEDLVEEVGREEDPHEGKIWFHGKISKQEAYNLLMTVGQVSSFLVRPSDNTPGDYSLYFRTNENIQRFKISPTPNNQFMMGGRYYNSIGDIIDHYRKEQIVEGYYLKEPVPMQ
In words: ITC. A general note: In ITC the heat of successive injections is recorded.

The test system of a further data set is Ras. The note with it: ref [3],[4]; cited from earlier work.

Non-standard residues stand in square brackets, D forms with d. pY = N[C@@H](Cc1ccc(OP(=O)(O)O)cc1)C(=O)O

p190RhoGAP pY1105 peptide (Homo sapiens), sequence (Q9NRY4 whole entry): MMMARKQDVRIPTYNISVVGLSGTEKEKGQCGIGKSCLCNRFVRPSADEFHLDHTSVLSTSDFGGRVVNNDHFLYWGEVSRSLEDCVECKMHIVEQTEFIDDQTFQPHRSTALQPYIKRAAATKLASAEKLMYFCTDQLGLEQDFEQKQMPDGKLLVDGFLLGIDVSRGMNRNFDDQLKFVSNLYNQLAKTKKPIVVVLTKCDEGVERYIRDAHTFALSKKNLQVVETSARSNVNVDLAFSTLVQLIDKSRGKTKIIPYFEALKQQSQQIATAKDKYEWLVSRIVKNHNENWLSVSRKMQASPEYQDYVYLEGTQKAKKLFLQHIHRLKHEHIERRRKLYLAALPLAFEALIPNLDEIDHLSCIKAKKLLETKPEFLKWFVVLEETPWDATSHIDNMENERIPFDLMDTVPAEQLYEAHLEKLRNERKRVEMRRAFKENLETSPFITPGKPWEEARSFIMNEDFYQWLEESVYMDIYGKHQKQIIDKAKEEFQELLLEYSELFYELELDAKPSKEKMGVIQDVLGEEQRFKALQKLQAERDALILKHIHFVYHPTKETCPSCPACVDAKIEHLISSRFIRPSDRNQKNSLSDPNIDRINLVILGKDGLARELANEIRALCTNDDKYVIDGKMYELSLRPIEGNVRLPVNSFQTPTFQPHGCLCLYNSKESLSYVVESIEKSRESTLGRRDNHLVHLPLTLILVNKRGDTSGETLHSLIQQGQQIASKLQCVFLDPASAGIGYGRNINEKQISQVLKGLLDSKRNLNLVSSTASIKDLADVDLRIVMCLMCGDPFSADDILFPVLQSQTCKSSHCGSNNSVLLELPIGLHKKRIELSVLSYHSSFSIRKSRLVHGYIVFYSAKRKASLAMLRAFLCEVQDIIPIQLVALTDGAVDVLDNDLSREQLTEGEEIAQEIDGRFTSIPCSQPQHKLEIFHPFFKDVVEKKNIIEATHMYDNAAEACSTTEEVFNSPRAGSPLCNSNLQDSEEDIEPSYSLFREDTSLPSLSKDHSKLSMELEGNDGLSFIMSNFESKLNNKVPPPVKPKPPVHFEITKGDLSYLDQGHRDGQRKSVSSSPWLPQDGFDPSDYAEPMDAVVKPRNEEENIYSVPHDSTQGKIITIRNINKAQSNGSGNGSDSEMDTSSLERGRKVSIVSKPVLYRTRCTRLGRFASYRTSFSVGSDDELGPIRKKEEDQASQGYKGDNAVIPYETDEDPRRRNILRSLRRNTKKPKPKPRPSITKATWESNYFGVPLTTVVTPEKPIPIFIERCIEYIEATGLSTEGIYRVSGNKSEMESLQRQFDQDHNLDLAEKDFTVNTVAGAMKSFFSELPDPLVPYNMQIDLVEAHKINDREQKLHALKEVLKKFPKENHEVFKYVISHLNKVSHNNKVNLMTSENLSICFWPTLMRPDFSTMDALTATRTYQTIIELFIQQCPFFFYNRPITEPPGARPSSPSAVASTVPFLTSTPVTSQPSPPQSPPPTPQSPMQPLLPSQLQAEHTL
p190RhoGAP pY1087 peptide (Homo sapiens), sequence (Q9NRY4 whole entry, the tested form may be a part): as the sequence (Q9NRY4 whole entry) above

What is called Kd is the equilibrium constant for the complex coming apart. p120RasGAP N-SH2 (from UniProt P20936): the Kd in data set [1] is 300 nM.

p120RasGAP C-SH2 (from UniProt P20936): in data set [2], the Kd is 150 nM.

B1: doubly-phosphorylated p190RhoGAP-A peptide (residues 1083–1111, pY1087 and pY1105) (peptide)
peptide: Ac-DPSD[pY]AEPMDAVVKPRNEEENI[pY]SVPHDS-NH2
B1 yielded a dH in data set [3] of -31.1 kcal/mol.

B2: p120RasGAP: key regulatory protein of the Ras subfamily of small guanine-nucleotide binding GTPases (protein)
chain: TAPPTNQWYHGKLDRTIAEERLRQAGKSGSYLIRESDRRPGSFVLSFLSQMNVVNHFRIIAMSGDYYIGGRRFSSLSDLIGYYSHVSSLLKGEKLLYPVAPPEPVEDRRRVRAILPYTKVPDTDEISFLKGDMFIVHNELEDGWMWVTNLRTDEQGLIVEDLVEEVGREEDPHEGKIWFHGKISKQEAYNLLMTVGQVSSFLVRPSDNTPGDYSLYFRTNENIQRFKISPTPNNQFMMGGRYYNSIGDIIDHYRKEQIVEGYYLKEPVPMQ
modifications: left off: His6, N-terminal, cleaved
In the case of B2, the “enhancement of GTPase activity of Ras” value in the data set on Ras is “two to five orders of magnitude”.

These data come from article PMC9722645 (Structure (London, England : 1993), 2022).
